To fix the notation:
B1: Cullin-1 (Arabidopsis thaliana (Mouse-ear cress)), Q94AH6 (parent)
chain: MERKTIDLEQGWDYMQTGITKLKRILEGLNEPAFDSEQYMMLYTTIYNMCTQKPPHDYSQQLYDKYREAFEEYINSTVLPALREKHDEFMLRELFKRWSNHKVMVRWLSRFFYYLDRYFIARRSLPPLNEVGLTCFRDLVYNELHSKVKQAVIALVDKEREGEQIDRALLKNVLDIYVEIGMGQMERYEEDFESFMLQDTSSYYSRKASSWIQEDSCPDYMLKSEECLKKERERVAHYLHSSSEPKLVEKVQHELLVVFASQLLEKEHSGCRALLRDDKVDDLSRMYRLYHKILRGLEPVANIFKQHVTAEGNALVQQAEDTATNQVANTASVQEQVLIRKVIELHDKYMVYVTECFQNHTLFHKALKEAFEIFCNKTVAGSSSAELLATFCDNILKKGGSEKLSDEAIEDTLEKVVKLLAYISDKDLFAEFYRKKLARRLLFDRSANDDHERSILTKLKQQCGGQFTSKMEGMVTDLTLARENQNSFEDYLGSNPAANPGIDLTVTVLTTGFWPSYKSFDINLPSEMIKCVEVFKGFYETKTKHRKLTWIYSLGTCHINGKFDQKAIELIVSTYQAAVLLLFNTTDKLSYTEILAQLNLSHEDLVRLLHSLSCAKYKILLKEPNTKTVSQNDAFEFNSKFTDRMRRIKIPLPPVDERKKVVEDVDKDRRYAIDAAIVRIMKSRKVLGHQQLVSECVEQLSRMFKPDIKAIKKRMEDLITRDYLERDKENPNMFRYLA
partner: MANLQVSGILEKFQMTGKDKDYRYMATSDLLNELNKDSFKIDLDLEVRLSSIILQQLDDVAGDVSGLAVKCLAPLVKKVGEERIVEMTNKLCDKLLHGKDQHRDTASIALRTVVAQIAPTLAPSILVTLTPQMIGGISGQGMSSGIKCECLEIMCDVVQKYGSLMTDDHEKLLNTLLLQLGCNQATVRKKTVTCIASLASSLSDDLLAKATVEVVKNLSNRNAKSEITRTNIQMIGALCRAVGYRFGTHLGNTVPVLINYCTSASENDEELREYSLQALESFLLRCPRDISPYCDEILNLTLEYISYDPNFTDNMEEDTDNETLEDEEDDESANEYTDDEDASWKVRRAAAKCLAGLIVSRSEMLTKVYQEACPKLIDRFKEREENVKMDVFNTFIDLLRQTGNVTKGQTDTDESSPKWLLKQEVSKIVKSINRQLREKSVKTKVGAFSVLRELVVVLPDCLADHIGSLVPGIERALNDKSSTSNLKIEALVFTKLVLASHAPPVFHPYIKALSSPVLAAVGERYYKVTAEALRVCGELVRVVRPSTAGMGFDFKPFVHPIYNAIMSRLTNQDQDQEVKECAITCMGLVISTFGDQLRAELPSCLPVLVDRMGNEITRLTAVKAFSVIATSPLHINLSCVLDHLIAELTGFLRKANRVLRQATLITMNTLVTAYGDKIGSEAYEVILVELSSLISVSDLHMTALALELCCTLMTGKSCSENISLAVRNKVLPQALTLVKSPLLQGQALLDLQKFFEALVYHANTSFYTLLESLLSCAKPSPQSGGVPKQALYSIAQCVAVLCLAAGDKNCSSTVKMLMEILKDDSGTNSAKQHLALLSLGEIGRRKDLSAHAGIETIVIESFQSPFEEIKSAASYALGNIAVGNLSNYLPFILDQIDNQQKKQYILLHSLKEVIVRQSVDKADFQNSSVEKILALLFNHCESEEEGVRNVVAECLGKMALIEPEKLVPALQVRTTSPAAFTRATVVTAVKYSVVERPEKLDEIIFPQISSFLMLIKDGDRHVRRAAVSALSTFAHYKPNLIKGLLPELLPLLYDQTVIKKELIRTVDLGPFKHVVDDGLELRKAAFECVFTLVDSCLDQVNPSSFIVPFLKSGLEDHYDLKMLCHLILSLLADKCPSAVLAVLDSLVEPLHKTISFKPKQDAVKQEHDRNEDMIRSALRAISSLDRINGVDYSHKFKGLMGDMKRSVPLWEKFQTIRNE

The variants in this experiment derive from B1. As to conditions: with cand1_arath CAND1, Q8L5Y6.
Regarding K682R, the “effect of a mutation on the interaction” value is “increasing interaction strength”.

For the origin of these results see IntAct's records for PubMed 15208391.
